Experiment [1] concerns the target PSD95 PDZ3 (Rattus norvegicus) (UniProt P31016). As to conditions: cited from earlier work.
The target of experiment [2] is GST-PDZ3 fusion protein (PDZ3 domain of SAP97). Briefly: SPR; Biacore3000; anti-GST antibody immobilised, GST-PDZ3 captured (1200-1700 RU), GST on the reference cell subtracted; peptides as analytes at 62.5 nM to 12.8 µM, 30 µl/min; HBS (0.01 M HEPES, 0.15 M NaCl, 3 mM EDTA, 0.005% Surfactant P20); steady-state affinity fit, 1:1 model.

We go through two molecules from paper PMC5718245.

UniProt P31016, sequence (P31016 310-396): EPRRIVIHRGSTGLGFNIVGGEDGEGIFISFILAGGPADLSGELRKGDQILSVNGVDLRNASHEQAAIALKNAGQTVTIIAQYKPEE

As for “CRIPT C-terminal 9 amino acids (from UniProt Q792Q4)”, the dissociation constant (Kd) in experiment [1] is 1 µM.
On to AMCGKKVLDTKNYKQTSV [peptide CHRK1 (C-terminal 18 amino acids of CRIPT)], for which the dissociation constant (Kd) in experiment [2] turned out to be 6.57 µM.
